Substitutions are numbered along the chain they refer to. Where two headings read alike, the source gives them in different places. Blank lines part the entries; values can stand above or below the binder they belong to.
Key:
[1] = molecular target: T1, human PD-L1 expressed on cells (Raji cells overexpressing human PD-L1; CHO cells) (human, UniProt Q9NZQ7 19-290); test: cell-based or functional assay
[2] = molecular target: T1, human PD-L1 expressed on cells (Raji …); test: flow cytometry on CHOK1-PDL1 cells (cell binding assay), GMFI
[3] = molecular target: T2, human His-PD-L1 (human, UniProt Q9NZQ7 19-238, limits assumed); test: ELISA: plate coated with human His-PD-L1, antibody titrated, goat anti-human IgG Fc HRP, OD450
T2 construct: also called human PD-L1
T2 sequence (Q9NZQ7 19-238 limits assumed): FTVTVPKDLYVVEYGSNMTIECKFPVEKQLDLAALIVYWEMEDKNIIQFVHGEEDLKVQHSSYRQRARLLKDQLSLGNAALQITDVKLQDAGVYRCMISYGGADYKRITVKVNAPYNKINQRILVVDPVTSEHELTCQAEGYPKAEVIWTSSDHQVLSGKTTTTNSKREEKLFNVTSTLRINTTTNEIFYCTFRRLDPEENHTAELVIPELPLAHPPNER
Experimental: Briefly, 100 μl anti-PD-L1 antibody at different concentrations was incubated in each well of 96 well plate pre-coated with human His-PD-L1, and then goat anti-human IgG Fc HRP was added and analyzed by coloring reaction of HRP with its substrate.

[4] = molecular target: T1, human PD-L1 expressed on cells (Raji …); test: flow cytometry, PD-L1 expressed on CHO or Raji cells
[5] = molecular target: T2, human His-PD-L1; test: ELISA blocking assay: antibody titrated together with Biotin-PD-1 on coated human His-PD-L1, Streptavidin-HRP, OD450
[6] = molecular target: T1, human PD-L1 expressed on cells (Raji …); test: flow cytometry on Raji-PDL1 cells (cell binding assay), GMFI
Experimental: Binding capability of the anti-PD-L1 antibody of the present application was further evaluated by using Raji cells overexpressing human PD-L1. Briefly, 50 μl Raji cells overexpressing human PD-L1 were seeded into 96 well plate at a concentration of 2*10⁵ cells/well. […] Then the cells were washed twice by FACS buffer and supplemented with 100 μl PE-anti-hu IgG, followed by incubation on ice for 1 hour. After incubation, the cells in each well were collected and resuspended with 65 μl FACS buffer for analysis by flow cytometry.

[7] = molecular target: T2, human His-PD-L1; test: ELISA blocking assay: antibody titrated together with Biotin-PD-1 on coated human His-PD-L1, Streptavidin-HRP, OD450; remark: listed apart in the source
[8] = molecular target: T2, human His-PD-L1; test: as above; remark: listed apart in the source
[9] = molecular target: T1, human PD-L1 expressed on cells (Raji …); test: flow cytometry on CHOK1-PDL1 cells (cell binding assay), GMFI; remark: listed apart in the source
[10] = molecular target: T1, human PD-L1 expressed on cells (Raji …); test: cell-based or functional assay; remark: listed apart in the source
[11] = molecular target: T2, human His-PD-L1; test: ELISA blocking assay: antibody titrated together with Biotin-PD-1 on coated human His-PD-L1, Streptavidin-HRP, OD450; remark: listed apart in the source

T1 sequence (Q9NZQ7 19-290): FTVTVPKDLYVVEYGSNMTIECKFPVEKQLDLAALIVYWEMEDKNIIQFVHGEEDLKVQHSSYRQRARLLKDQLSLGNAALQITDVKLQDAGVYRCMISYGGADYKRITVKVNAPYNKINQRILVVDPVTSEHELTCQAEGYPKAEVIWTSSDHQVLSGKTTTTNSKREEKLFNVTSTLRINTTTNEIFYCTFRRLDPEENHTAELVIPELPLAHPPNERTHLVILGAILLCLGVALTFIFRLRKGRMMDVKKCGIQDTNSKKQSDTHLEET

EC50 (read off the curve), NFAT-luciferase signal (RLU), CHO-PDL-1 aAPC and Jurkat-PD-1-NFAT [1]: ~0.7 nM
B1: 93-VH-6 (VHH)
VHH: EVQLVESGGGLVQPGGSLRLSCAASGFTFTFRHYVMGWFRQAPGKEREFVAAISWSGSGSYYADSVKGRFTISRDNSKNTVYLQMNSLRAEDTAVYYCAADMTTRMSQASREYDYWGQGTLVTVSS

EC50 (read off the curve) [2]: ~4 nM
B2: R21448505 (VHH)
VHH: B1 VHH with A109D
notes: ELISA detection with anti-human IgG Fc implies a human Fc part that is not described

binding result [3]: binds | binding result [4]: binds
B3: R21448508 (VHH)
VHH: B1 VHH with R32Y, A109D
notes: as for B2

binding result [3]: binds | binding result [4]: binds
B4: R21448513 (VHH)
VHH: B1 VHH with R32Y, A52D, R105E
notes: as for B2

binding result [3]: binds | binding result [4]: binds
B5: R21448504 (VHH)
VHH: B1 VHH with R105E
notes: as for B2

binding result [3]: binds | binding result [2]: binds
B6: R21448506 (VHH)
VHH: B1 VHH with R111D
notes: as for B2

binding result [3]: binds | binding result [4]: binds
B7: R21448517 (VHH)
VHH: B1 VHH with R105E, A109D
notes: as for B2

IC50 (read off the curve) [5]: ~0.6 nM
B8: R21448514 (VHH)
VHH: B1 VHH with R32Y, A52D, A109D
notes: as for B2

IC50 (read off the curve) [5]: ~0.8 nM
B9: R21448515 (VHH)
VHH: B1 VHH with R32Y, A52D, R111D
notes: as for B2

EC50 (read off the curve) [6]: ~0.4 nM | IC50 (read off the curve) [7]: ~0.7 nM
B10: R21448516 (VHH)
VHH: B1 VHH with R32Y, A52D, R105E, A109D, R111D
notes: as for B2

binding result [2]: binds | binding result [8]: binds
B11: R21448509 (VHH)
VHH: B1 VHH with R32Y, R111D
notes: as for B2

binding result [3]: binds | binding result [4]: binds
B12: R21448502 (VHH)
VHH: B1 VHH with R32Y
notes: as for B2

binding result [3]: binds | binding result [4]: binds
B13: R21448507 (VHH)
VHH: B1 VHH with R32Y, R105E
notes: as for B2

IC50 (read off the curve) [5]: ~0.8 nM
B14: R21448519 (VHH)
VHH: B1 VHH with A109D, R111D
notes: as for B2

binding result [3]: binds | binding result [4]: binds
B15: R21448518 (VHH)
VHH: B1 VHH with R105E, R111D
notes: as for B2

EC50 (read off the curve), NFAT-luciferase signal (RLU), CHO-PDL-1 aAPC and Jurkat-PD-1-NFAT [1]: ~0.6 nM
B16: 112-VH47 (VHH)
VHH: EVQLVESGGGLVQPGGSLRLSCAASGFTFSSGTQFSDSKIDWYRQAPGKGLVWVAGIFSTGSTIYEDSVKGRFTISRDNAKNTGYLQMNSLRAEDTAVYYCRVIGRGILAWGQGTLVTVSS

binding result [3]: binds | binding result [4]: binds
B17: R21560106 (VHH)
VHH: B16 VHH with I40A, I108T
notes: as for B2

EC50 (read off the curve) [9]: ~3 nM | EC50 (read off the curve), NFAT-luciferase signal (RLU), CHO-PDL-1 aAPC and Jurkat-PD-1-NFAT [10]: ~0.5 nM | IC50 (read off the curve) [11]: ~0.8 nM
B18: R21560102 (VHH)
VHH: B16 VHH with S59Q
notes: as for B2

binding result [3]: binds | binding result [4]: binds
B19: R21560103 (VHH)
VHH: B16 VHH with R106I
notes: as for B2

Source: patent US20260184793A1 (TJ BIOPHARMA SHANGHAI, published 2026)
